# Laboratory results taken from ChEMBL document CHEMBL1143427, “Interactions of ceftobiprole with beta-lactamases from molecular classes A to D” (Antimicrob Agents Chemother, 2007).
# B1: Metallo beta-lactamase (Pseudomonas aeruginosa), Q6TUJ4 (protein)
# chain: YVHTSFEEVNGWGVVPKHGLVVLVNAEAYLIDTPFTAKDTEKLVTWFVERGYKIKGSISSHFHSDSTGGIEWLNSRSIPTYASELTNELLKKDGKVQATNSFSGVNYWLVKNKIEVFYPGPGHTPDNVVVWLP
# B2: Class A carbapenemase KPC-2 (Escherichia coli), A8DS27 (protein)
# chain: MSLYRRLVLLSCLSWPLAGFSATALTNLVAEPFAKLEQDFGGSIGVYAMDTGSGATVSYRAEERFPLCSSFKGFLAAAVLARSQQQAGLLDTPIRYGKNALVPWSPISEKYLTTGMTVAELSAAAVQYSDNAAANLLLKELGGPAGLTAFMRSIGDTTFRLDRWELELNSAIPGDARDTSSPRAVTESLQKLTLGSALAAPQRQQFVDWLKGNTTGNHRIRAAVPADWAVGDKTGTCGVYGTANDYAVVWPTGRAPIVLAVYTRAPNKDDKHSEAVIAAAARLALEGLGVNGQ
# B3: Beta-lactamase (Klebsiella oxytoca), Q8RT60 (protein)
# chain: MIKSSWRKIAMLAAAVPLLLASGALWASTDAIHQKLTDLEKRSGGRLGVALINTADNSQILYRGDERFAMCSTSKVMAAAAVLKQSESNKEVVNKRLEINAADLVVWSPITEKHLQSGMTLAELSAATLQYSDNTAMNLIIGYLGGPEKVTAFARSIGDATFRLDRTEPTLNTAIPGDERDTSTPLAMAESLRKLTLGDALGEQQRAQLVTWLKGNTTGGQSIRAGLPESWVVGDKTGAGDYGTTNDIAVIWPEDHAPLILVTYFTQPQQDAKNRKEVLAAAAKIVTEGL
# B4: Beta-lactamase CTX-M (Escherichia coli), Q9EXV5 (protein)
# chain: MVKKSLRQFTLMATATVTLLLGSVPLYAQTADVQQKLAELERQSGGRLGVALINTADNSQILYRADERFAMCSTSKVMAAAAVLKKSESEPNLLNQRVEIKKSDLVNYNPIAEKHVNGTMSLAELSAAALQYSDNVAMNKLIAHVGGPASVTAFARQLGDETFRLDRTEPTLNTAIPGDPRDTTSPRAMAQTLRNLTLGKALGDSQRAQLVTWMKGNTTGAASIQAGLPASWVVGDKTGSGGYGTTNDIAVIWPKDRAPLILVTYFTQPQPKAESRRDVLASAAKIVTDGL
# Assays:
# [1] = substrate: CC(C)(O/N=C(\C(=O)N[C@@H]1C(=O)N2C(C(=O)[O-])=C(C[n+]3ccccc3)CS[C@H]12)c1csc(N)n1)C(=O)O; experiment: (§1) Ratio of Kcat to Km of Pseudomonas aeruginosa IMP1 assessed as drug hydrolysis by spectrophotometry
# [2] = substrate: CC1(C)S[C@@H]2[C@H](NC(=O)Cc3ccccc3)C(=O)N2[C@H]1C(=O)O; experiment: as §1
# [3] = substrate: CO/N=C(\C(=O)N[C@@H]1C(=O)N2C(C(=O)[O-])=C(C[N+]3(C)CCCC3)CS[C@H]12)c1csc(N)n1; experiment: as §1
# [4] = substrate: Nc1nc(/C(=N/O)C(=O)N[C@@H]2C(=O)N3C(C(=O)O)=C(/C=C4\CCN([C@@H]5CCNC5)C4=O)CS[C@H]23)ns1; experiment: as §1
# [5] = substrate: O=C(Cc1cccs1)N[C@@H]1C(=O)N2C(C(=O)[O-])=C(C[n+]3ccccc3)CS[C@H]12; experiment: as §1
# [6] = substrate: CC(C)(O/N=C(\C(=O)N[C@@H]1C(=O)N2C(C(=O)[O-])=C(C[n+]3ccccc3)CS[C@H]12)c1csc(N)n1)C(=O)O; details: Escherichia coli
# [7] = substrate: CC1(C)S[C@@H]2[C@H](NC(=O)Cc3ccccc3)C(=O)N2[C@H]1C(=O)O; details: Escherichia coli
# [8] = substrate: CO/N=C(\C(=O)N[C@@H]1C(=O)N2C(C(=O)[O-])=C(C[N+]3(C)CCCC3)CS[C@H]12)c1csc(N)n1; details: Escherichia coli
# [9] = substrate: Nc1nc(/C(=N/O)C(=O)N[C@@H]2C(=O)N3C(C(=O)O)=C(/C=C4\CCN([C@@H]5CCNC5)C4=O)CS[C@H]23)ns1; details: Escherichia coli
# [10] = substrate: O=C(Cc1cccs1)N[C@@H]1C(=O)N2C(C(=O)[O-])=C(C[n+]3ccccc3)CS[C@H]12; details: Escherichia coli
# [11] = substrate: CC(C)(O/N=C(\C(=O)N[C@@H]1C(=O)N2C(C(=O)[O-])=C(C[n+]3ccccc3)CS[C@H]12)c1csc(N)n1)C(=O)O; details: Escherichia coli; remark: listed apart in the source
# [12] = substrate: CC1(C)S[C@@H]2[C@H](NC(=O)Cc3ccccc3)C(=O)N2[C@H]1C(=O)O; details: Escherichia coli; remark: listed apart in the source
# [13] = substrate: CO/N=C(\C(=O)N[C@@H]1C(=O)N2C(C(=O)[O-])=C(C[N+]3(C)CCCC3)CS[C@H]12)c1csc(N)n1; details: Escherichia coli; remark: listed apart in the source
# [14] = substrate: Nc1nc(/C(=N/O)C(=O)N[C@@H]2C(=O)N3C(C(=O)O)=C(/C=C4\CCN([C@@H]5CCNC5)C4=O)CS[C@H]23)ns1; details: Escherichia coli; remark: listed apart in the source
# [15] = substrate: O=C(Cc1cccs1)N[C@@H]1C(=O)N2C(C(=O)[O-])=C(C[n+]3ccccc3)CS[C@H]12; details: Escherichia coli; remark: listed apart in the source
# [16] = substrate: CC(C)(O/N=C(\C(=O)N[C@@H]1C(=O)N2C(C(=O)[O-])=C(C[n+]3ccccc3)CS[C@H]12)c1csc(N)n1)C(=O)O; experiment: (§2) Activity of Klebsiella oxytoca beta-lactamase K1assessed as drug hydrolysis by spectrophotometry
# [17] = substrate: CC1(C)S[C@@H]2[C@H](NC(=O)Cc3ccccc3)C(=O)N2[C@H]1C(=O)O; experiment: as §2
# [18] = substrate: CO/N=C(\C(=O)N[C@@H]1C(=O)N2C(C(=O)O)=C(COC(C)=O)CS[C@H]12)c1csc(N)n1; experiment: as §2
# [19] = substrate: CO/N=C(\C(=O)N[C@@H]1C(=O)N2C(C(=O)[O-])=C(C[N+]3(C)CCCC3)CS[C@H]12)c1csc(N)n1; experiment: as §2
# [20] = substrate: Nc1nc(/C(=N/O)C(=O)N[C@@H]2C(=O)N3C(C(=O)O)=C(/C=C4\CCN([C@@H]5CCNC5)C4=O)CS[C@H]23)ns1; experiment: as §2
# [21] = substrate: O=C(Cc1cccs1)N[C@@H]1C(=O)N2C(C(=O)[O-])=C(C[n+]3ccccc3)CS[C@H]12; experiment: as §2
# [22] = substrate: CC(C)(O/N=C(\C(=O)N[C@@H]1C(=O)N2C(C(=O)[O-])=C(C[n+]3ccccc3)CS[C@H]12)c1csc(N)n1)C(=O)O; experiment: (§3) Ratio of Kcat to Km of Klebsiella oxytoca beta-lactamase K1 assessed as drug hydrolysis by spectrophotometry
# [23] = substrate: CC1(C)S[C@@H]2[C@H](NC(=O)Cc3ccccc3)C(=O)N2[C@H]1C(=O)O; experiment: as §3
# [24] = substrate: CO/N=C(\C(=O)N[C@@H]1C(=O)N2C(C(=O)O)=C(COC(C)=O)CS[C@H]12)c1csc(N)n1; experiment: as §3
# [25] = substrate: CO/N=C(\C(=O)N[C@@H]1C(=O)N2C(C(=O)[O-])=C(C[N+]3(C)CCCC3)CS[C@H]12)c1csc(N)n1; experiment: as §3
# [26] = substrate: Nc1nc(/C(=N/O)C(=O)N[C@@H]2C(=O)N3C(C(=O)O)=C(/C=C4\CCN([C@@H]5CCNC5)C4=O)CS[C@H]23)ns1; experiment: as §3
# [27] = substrate: O=C(Cc1cccs1)N[C@@H]1C(=O)N2C(C(=O)[O-])=C(C[n+]3ccccc3)CS[C@H]12; experiment: as §3
# [28] = substrate: CC(C)(O/N=C(\C(=O)N[C@@H]1C(=O)N2C(C(=O)[O-])=C(C[n+]3ccccc3)CS[C@H]12)c1csc(N)n1)C(=O)O; experiment: (§4) Activity of Escherichia coli CTX-M-15 assessed as drug hydrolysis by spectrophotometry
# [29] = substrate: CC1(C)S[C@@H]2[C@H](NC(=O)Cc3ccccc3)C(=O)N2[C@H]1C(=O)O; experiment: as §4
# [30] = substrate: CO/N=C(\C(=O)N[C@@H]1C(=O)N2C(C(=O)O)=C(COC(C)=O)CS[C@H]12)c1csc(N)n1; experiment: as §4
# [31] = substrate: CO/N=C(\C(=O)N[C@@H]1C(=O)N2C(C(=O)[O-])=C(C[N+]3(C)CCCC3)CS[C@H]12)c1csc(N)n1; experiment: as §4
# [32] = substrate: Nc1nc(/C(=N/O)C(=O)N[C@@H]2C(=O)N3C(C(=O)O)=C(/C=C4\CCN([C@@H]5CCNC5)C4=O)CS[C@H]23)ns1; experiment: as §4
# [33] = substrate: O=C(Cc1cccs1)N[C@@H]1C(=O)N2C(C(=O)[O-])=C(C[n+]3ccccc3)CS[C@H]12; experiment: as §4
# [34] = substrate: CC(C)(O/N=C(\C(=O)N[C@@H]1C(=O)N2C(C(=O)[O-])=C(C[n+]3ccccc3)CS[C@H]12)c1csc(N)n1)C(=O)O; details: Escherichia coli; remark: listed apart in the source
# [35] = substrate: CC1(C)S[C@@H]2[C@H](NC(=O)Cc3ccccc3)C(=O)N2[C@H]1C(=O)O; details: Escherichia coli; remark: listed apart in the source
# [36] = substrate: CO/N=C(\C(=O)N[C@@H]1C(=O)N2C(C(=O)O)=C(COC(C)=O)CS[C@H]12)c1csc(N)n1; details: Escherichia coli
# [37] = substrate: CO/N=C(\C(=O)N[C@@H]1C(=O)N2C(C(=O)[O-])=C(C[N+]3(C)CCCC3)CS[C@H]12)c1csc(N)n1; details: Escherichia coli; remark: listed apart in the source
# [38] = substrate: Nc1nc(/C(=N/O)C(=O)N[C@@H]2C(=O)N3C(C(=O)O)=C(/C=C4\CCN([C@@H]5CCNC5)C4=O)CS[C@H]23)ns1; details: Escherichia coli; remark: listed apart in the source
# [39] = substrate: O=C(Cc1cccs1)N[C@@H]1C(=O)N2C(C(=O)[O-])=C(C[n+]3ccccc3)CS[C@H]12; details: Escherichia coli; remark: listed apart in the source
protein,measurement,setting,value
B1,kcat/Km,[1],90000 M⁻¹ s⁻¹
same,kcat/Km,[2],560000 M⁻¹ s⁻¹
same,kcat/Km,[3],150000 M⁻¹ s⁻¹
same,kcat/Km,[4],740000 M⁻¹ s⁻¹
same,kcat/Km,[5],75000 M⁻¹ s⁻¹
B2,Km,[6],230 µM
same,kcat,[6],0.38 s⁻¹
same,Km,[7],30 µM
same,kcat,[7],60 s⁻¹
same,Km,[8],540 µM
same,kcat,[8],12 s⁻¹
same,Km,[9],340 µM
same,kcat,[9],110 s⁻¹
same,Km,[10],510 µM
same,kcat,[10],390 s⁻¹
same,kcat/Km,[11],1700 M⁻¹ s⁻¹
same,kcat/Km,[12],2e+06 M⁻¹ s⁻¹
same,kcat/Km,[13],22000 M⁻¹ s⁻¹
same,kcat/Km,[14],320000 M⁻¹ s⁻¹
same,kcat/Km,[15],770000 M⁻¹ s⁻¹
B3,Km,[16],140 µM
same,kcat,[16],0.018 s⁻¹
same,Km,[17],40 µM
same,kcat,[17],1100 s⁻¹
same,Km,[18],550 µM
same,kcat,[18],88 s⁻¹
same,Km,[19],1000 µM
same,kcat,[19],59 s⁻¹
same,Km,[20],32 µM
same,kcat,[20],230 s⁻¹
same,Km,[21],100 µM
same,kcat,[21],700 s⁻¹
same,kcat/Km,[22],130 M⁻¹ s⁻¹
same,kcat/Km,[23],2.8e+07 M⁻¹ s⁻¹
same,kcat/Km,[24],160000 M⁻¹ s⁻¹
same,kcat/Km,[25],59000 M⁻¹ s⁻¹
same,kcat/Km,[26],7.2e+06 M⁻¹ s⁻¹
same,kcat/Km,[27],7e+06 M⁻¹ s⁻¹
B4,Km,[28],240 µM
same,kcat,[28],4.4 s⁻¹
same,Km,[29],8.7 µM
same,kcat,[29],47 s⁻¹
same,Km,[30],26 µM
same,kcat,[30],180 s⁻¹
same,Km,[31],180 µM
same,kcat,[31],45 s⁻¹
same,Km,[32],19 µM
same,kcat,[32],270 s⁻¹
same,Km,[33],39 µM
same,kcat,[33],190 s⁻¹
same,kcat/Km,[34],18000 M⁻¹ s⁻¹
same,kcat/Km,[35],5.4e+06 M⁻¹ s⁻¹
same,kcat/Km,[36],6.9e+06 M⁻¹ s⁻¹
same,kcat/Km,[37],250000 M⁻¹ s⁻¹
same,kcat/Km,[38],1.4e+07 M⁻¹ s⁻¹
same,kcat/Km,[39],4.9e+06 M⁻¹ s⁻¹
